Assay results as given in patent publication US20190359693A1.

Experiments:
[1] = molecular target: hemagglutinin (HA) of influenza B/Brisbane/60/08 (Victoria) (influenza B virus); experiment: cell-based or functional assay
[2] = molecular target: hemagglutinin (HA) of influenza B/Florida/04/06 (Yamagata) (influenza B virus); experiment: cell-based or functional assay
[3] = molecular target: hemagglutinin (HA) of influenza virus B/Florida/04/06 (Yamagata) (influenza B virus); experiment: cell-based or functional assay
[4] = molecular target: hemagglutinin (HA) of influenza virus B/Harbin/7/94 (Yamagata) (influenza B virus); experiment: cell-based or functional assay
[5] = molecular target: hemagglutinin (HA) of influenza virus B/Lee/40 (Old) (influenza B virus) (UniProt P03460); experiment: cell-based or functional assay
[6] = molecular target: hemagglutinin (HA) of influenza virus B/Massachusetts/02/12 (Yamagata) (influenza B virus); experiment: cell-based or functional assay
[7] = molecular target: hemagglutinin (HA) of influenza virus H10N3 A/Common Teal/MPH11/08 (influenza A virus); experiment: cell-based or functional assay
[8] = molecular target: hemagglutinin (HA) of influenza virus H10N8 A/Jiangxi/346/2013 (influenza A virus); experiment: cell-based or functional assay
[9] = molecular target: hemagglutinin (HA) of influenza virus H12N5 A/Env/MPK659/09 (influenza A virus); experiment: cell-based or functional assay
[10] = molecular target: hemagglutinin (HA) of influenza virus H14N5 A/Mallard/Astrakhan/263/1982 (influenza A virus); experiment: cell-based or functional assay
[11] = molecular target: hemagglutinin (HA) of influenza virus H1N1 A/California/07/09 (influenza A virus); experiment: cell-based or functional assay
[12] = molecular target: hemagglutinin (HA) of influenza virus H1N1 A/Christchurch/16/10 (influenza A virus); experiment: cell-based or functional assay
[13] = molecular target: hemagglutinin (HA) of influenza virus H1N1 A/HK/54/98 (influenza A virus); experiment: cell-based or functional assay
[14] = molecular target: hemagglutinin (HA) of influenza virus H1N1 A/New Caledonia/20/99 (influenza A virus); experiment: cell-based or functional assay
[15] = molecular target: hemagglutinin (HA) of influenza virus H1N1 A/Solomon Islands/3/2006 (IVR 145) (influenza A virus); experiment: cell-based or functional assay
[16] = molecular target: hemagglutinin (HA) of influenza virus H1N2 A/Env/HK/MPU3156/05 (influenza A virus); experiment: cell-based or functional assay
[17] = molecular target: hemagglutinin (HA) of influenza virus H2N2 A/AnnArbor/23/57 (influenza A virus); experiment: cell-based or functional assay
[18] = molecular target: hemagglutinin (HA) of influenza virus H2N2 A/Env/HK/MPU3156/05 (influenza A virus); experiment: cell-based or functional assay
[19] = molecular target: hemagglutinin (HA) of influenza virus H2N2 A/Guiyang/1/57 (influenza A virus); experiment: cell-based or functional assay
[20] = molecular target: hemagglutinin (HA) of influenza virus H3N2 A/Aichi/2/68 (influenza A virus) (UniProt P03437); experiment: cell-based or functional assay
[21] = molecular target: hemagglutinin (HA) of influenza virus H3N2 A/Brisbane/10/07 (influenza A virus); experiment: cell-based or functional assay
[22] = molecular target: hemagglutinin (HA) of influenza virus H3N2 A/HK/1/68-MA (influenza A virus); experiment: cell-based or functional assay
[23] = molecular target: hemagglutinin (HA) of influenza virus H4N1 A/Northern Pintail/MPB1368/06 (influenza A virus); experiment: cell-based or functional assay
[24] = molecular target: hemagglutinin (HA) of influenza virus H5N1 A/Indonesia/5/05 (influenza A virus); experiment: cell-based or functional assay
[25] = molecular target: hemagglutinin (HA) of influenza virus H5N1 A/PR8 H5N1 HK97 (influenza A virus); experiment: cell-based or functional assay
[26] = molecular target: hemagglutinin (HA) of influenza virus H5N2 A/Eurasian Wigeon/HK/MPF333/07 (influenza A virus); experiment: cell-based or functional assay
[27] = molecular target: hemagglutinin (HA) of influenza virus H6N1 A/Eurasian Wigeon/MPG1884/09 (influenza A virus); experiment: cell-based or functional assay
[28] = molecular target: hemagglutinin (HA) of influenza virus H6N8 A/Eurasian Wigeon/MPD411/07 (influenza A virus); experiment: cell-based or functional assay
[29] = molecular target: hemagglutinin (HA) of influenza virus H7N3 A/NIBRG/60 (A/mallard/Netherlands/12/00) (influenza A virus); experiment: cell-based or functional assay
[30] = molecular target: hemagglutinin (HA) of influenza virus H7N7 A/Common Teal/MPF139/07 (influenza A virus); experiment: cell-based or functional assay
[31] = molecular target: hemagglutinin (HA) of influenza virus H7N7 A/Northern Shoveler/MPF518/08 (influenza A virus); experiment: cell-based or functional assay
[32] = molecular target: hemagglutinin (HA) of influenza virus H7N7 A/PR8 H7N7-NY (influenza A virus); experiment: cell-based or functional assay
[33] = molecular target: hemagglutinin (HA) of influenza virus H7N9 A/Shanghai/2/13 (influenza A virus); experiment: cell-based or functional assay
[34] = molecular target: hemagglutinin (HA) of influenza virus H8N4 A/Eurasian Wigeon/MPH571/08 (influenza A virus); experiment: cell-based or functional assay
[35] = molecular target: hemagglutinin (HA) of influenza virus H9N2 A/Ck/HK/SSP176/09 (influenza A virus); experiment: cell-based or functional assay
[36] = molecular target: hemagglutinin (HA) of influenza virus H9N2 A/Great Cormorant/MP2934/04 (influenza A virus); experiment: cell-based or functional assay
[37] = molecular target: recombinant HA of B/Brisbane/60/08 (Victoria) (influenza B virus); experiment: biolayer interferometry (Octet), steady-state fit, geometric mean, pH 7.4
[38] = molecular target: recombinant HA of H1N1 A/Brisbane/59/07 (influenza A virus); experiment: as above
[39] = molecular target: recombinant HA of H3N2 A/HK/1/68-MA (influenza A virus); experiment: as above
[40] = molecular target: recombinant HA of H3N2 A/Wisconsin/67/05 (influenza A virus); experiment: as above
[41] = molecular target: recombinant HA of H7N3 A/NIBRG/60 (A/mallard/NL/12/00) (influenza A virus); experiment: as above
[42] = molecular target: recombinant HA of H7N9 A/Hangzhou/1/2013 (influenza A virus); experiment: as above

B1: MD2407 (bispecific antibody)
chain: EVQLVESGGGLVQPGGSLRLSCAVSISIFDIYAMDWYRQAPGKQRDLVATSFRDGSTNYADSVKGRFTISRDNAKNTLYLQMNSLKPEDTAVYLCHVSLYRDPLGVAGGMGVYWGKGALVTVSSGGGGSGGGGSEVQLVESGGGLVQAGGSLKLSCAASGRTYAMGWFRQAPGKEREFVAHINALGTRTYYSDSVKGRFTISRDNAKNTEYLEMNNLKPEDTAVYYCTAQGQWRAAPVAVAAEYEFWGQGTQVTVSSGGGGSGGGGSEVQLVESGGGLVQPGGSLRLSCAATGFTLENKAIGWFRQTPGSEREGVLCISKSGSWTYYTDSMRGRFTISRDNAENTVYLQMDSLKPEDTAVYYCATTTAGGGLCWDGTTFSRLASSWGQGTQVTVSSGGGGSGGGGSEVQLVESGGGLVQPGGSLKLSCAASGFTFSTSWMYWLRQAPGKGLEWVSVINTDGGTYYADSVKDRFTISRDNAKDTLYLQMSSLKSEDTAVYYCAKDWGGPEPTRGQGTQVTVSS
Question: What does the source list for B1?
Answer: ADCC induction (EC50 grade, FcγRIIIa reporter bioassay) [1]: > 0.5 µg/mL; ADCC induction (EC50 grade, FcγRIIIa reporter bioassay) [2]: > 0.5 µg/mL; average neutralization titer [3]: 7.6 nM; average neutralization titer [4]: 6.4 nM; average neutralization titer [5]: 18.4 nM; average neutralization titer [6]: 3 nM; average neutralization titer [7]: 19.3 nM; average neutralization titer [8]: 30.4 nM; average neutralization titer [9]: > 1000 nM; average neutralization titer [10]: 19.2 nM; average neutralization titer [11]: 3.4 nM; average neutralization titer [12]: 1.3 nM; average neutralization titer [13]: 10.3 nM; average neutralization titer [14]: 5.7 nM; average neutralization titer [15]: 5.4 nM; average neutralization titer [16]: 25.6 nM; average neutralization titer [17]: 101 nM; average neutralization titer [18]: 19.2 nM; average neutralization titer [19]: 126 nM; average neutralization titer [20]: 9.9 nM; average neutralization titer [21]: 10.6 nM; average neutralization titer [22]: 25.9 nM; average neutralization titer [23]: 8.2 nM; average neutralization titer [24]: 16.2 nM; average neutralization titer [25]: 3.6 nM; average neutralization titer [26]: 26 nM; average neutralization titer [27]: 20.6 nM; average neutralization titer [28]: 20.9 nM; average neutralization titer [29]: 13.8 nM; average neutralization titer [30]: 57.4 nM; average neutralization titer [31]: 36.1 nM; average neutralization titer [32]: 22.3 nM; average neutralization titer [33]: 54.2 nM; average neutralization titer [34]: 15.1 nM; average neutralization titer [35]: 23 nM; average neutralization titer [36]: 19.6 nM; Kd [37]: 3.1 nM; Kd [38]: 2.8 nM; Kd [39]: 2.2 nM; Kd [40]: 0.5 nM; Kd [41]: 1.2 nM; Kd [42]: 1.7 nM
